How the values were obtained:
Test in all cases: ITC
[1] = molecular target: H3_((28–43))K36me3 peptide (UniProt P68431)
[2] = molecular target: H3_((28–43))K36me1 peptide (UniProt P68431)
[3] = molecular target: H3_((28–43))K36me2 peptide (UniProt P68431)
[4] = molecular target: H3_((27–46))K36me3 peptide (UniProt P68431)

Sequence of PHF1 Tudor domain protein, wild-type (ITC and silver-stained peptide pull-downs) (O43189 29-86): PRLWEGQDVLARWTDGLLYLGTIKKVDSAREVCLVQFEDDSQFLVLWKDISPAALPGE

| Ka [1] [M⁻¹] | Kd [1] [µM] | dH [1] [kcal/mol] | stoichiometry N [1] | dH [2] [kcal/mol] | stoichiometry N [2] | Ka [3] [M⁻¹] | Kd [3] [µM] | dH [3] [kcal/mol] | stoichiometry N [3] | Kd [4] [µM] | Substance |
| --- | --- | --- | --- | --- | --- | --- | --- | --- | --- | --- | --- |
| 43900 | 22.8 | -6.47 | – | – | – | – | – | – | – | – | PHF1 Tudor domain protein, E66K (from UniProt O43189-1 29-86) (domain or fragment) |
| 33200 | 30.1 | -1.35 | 0.68 | – | – | – | – | – | – | – | PHF1 Tudor domain protein, W41A (from UniProt O43189-1 29-86) (domain or fragment) |
| 238000 | 4.2 | -5.63 | 0.79 | -0.817 | 0.7 | 51800 | 19.3 | -3.99 | 0.94 | – | PHF1 Tudor domain protein, wild-type (ITC and silver-stained peptide pull-downs) (from UniProt O43189-1 29-86) (domain or fragment) |
| – | – | – | – | – | – | – | – | – | – | 5 to 7 | PHF19 Tudor domain protein, wild-type (from UniProt Q5T6S3 40-93) (domain or fragment) |

From publication PMC3570589
